In test [1] the target is T1, PSMA Fab.
T1 construct: Biotinylated and captured on neutravidin plates in the phage ELISA; also called Anti-PSMA Fab; 006 PSMA Fab
Kind of test: clonal phage ELISA on biotinylated PSMA Fab captured on neutravidin plates, anti-M13-HRP detection; blocking buffer alone. Background: In an ELISA, binding on a coated surface is turned into a signal by an enzyme label.
Description: (§1) Clonal phage were harvested as crude supernatants and screened via standard ELISAs. […] Prior to the addition of clonal phage. wells were incubated with blocking buffer and PSMA antigen or blocking buffer alone. Without washing or aspirating, clonal phage supernatants were then added to the wells and incubated for a short time. Wells were then washed followed by detection of bound phage using a horse radish conjugated anti-M13 antibody.

Test [2] has as its target T2, PSMA Fab.
T2 construct: also called Anti-PSMA Fab; 006 PSMA Fab
Kind of test: phage binding ELISA; biotinylated PSMA Fab on neutravidin plate, clonal phage supernatant, anti-M13 HRP detection; column read as anti-PSMA Fab without PSMA antigen.
Description: as §1

The target in test [3] is T2, PSMA Fab. Kind of test: phage binding ELISA; biotinylated PSMA Fab on neutravidin plate, clonal phage supernatant, anti-M13 HRP detection; column read as anti-PSMA Fab pre-incubated with PSMA antigen as competitor.
Description: as §1

Where no end group is shown, it is not given here.

B1: Phage-2528 (peptide)
peptide: YEKWCTPAWMCDFV
modifications: cysteine pairing not given here; also: fused to phage pIII, linker and fusion site not given here
notes: Clonal phage of the Peptide-180 library, tested as crude supernatant; not shown: pIII coat protein of the bacteriophage to which the peptide is fused
As for B1, in the test with PSMA Fab [1], the “Phage binding ELISA signal, Anti-PSMA Fab” value turned out to be 1.17. With VLNWCTPPWMCLGI [Phage-2589], the “phage binding ELISA signal” value turned out to be 1.06 in the test with PSMA Fab [2] and 0.107 with PSMA Fab [3]. In the same order, the values of HFNWCTPSWMCDVL [Phage-2592] are 1.05 and 0.118.

B2: Phage-2537 (peptide)
peptide: EMKWCIPQWMCADS
modifications: cysteine pairing not given here; also: fused to phage pIII, linker and fusion site not given here
notes: as for B1
With B2, the “Phage binding ELISA signal, Anti-PSMA Fab” value with PSMA Fab [1] was 1.16. On to MIGWCTPSWMCSGF [Phage-2588], for which the “phage binding ELISA signal” value with PSMA Fab [2] was found to be 1.06; with PSMA Fab [3] it was 0.0716.

As for VHKWCTPAWMCEVH [Phage-2597], the “phage binding ELISA signal” value with PSMA Fab [2] is 1.04; in the test with PSMA Fab [3], 0.0662. In the same order, the values of DGIWCTPRWMCEGM [Phage-2593] are 1.05 and 0.0865.

B3: Phage-2534 (peptide)
peptide: VPKWCIPVWMCEVM
modifications: cysteine pairing not given here; also: fused to phage pIII, linker and fusion site not given here
notes: as for B1
B3: the “Phage binding ELISA signal, Anti-PSMA Fab” value with PSMA Fab [1] turned out to be 1.16.

B4: Phage-2540 (peptide)
peptide: EMKWCTPEWMCIGL
modifications: cysteine pairing not given here; also: fused to phage pIII, linker and fusion site not given here
notes: as for B1
For the molecule B4, in the test with PSMA Fab [1], the “Phage binding ELISA signal, Anti-PSMA Fab” value stood at 1.15.

B5: Phage-2542 (peptide)
peptide: DLKWCFPDWMCQVG
modifications: cysteine pairing not given here; also: fused to phage pIII, linker and fusion site not given here
notes: as for B1
For the molecule B5, in the test with PSMA Fab [1], the “Phage binding ELISA signal, Anti-PSMA Fab” value turned out to be 1.15. With LVKWCVPDWMCQET [Phage-2598], the “phage binding ELISA signal” value with PSMA Fab [2] is 1.04; with PSMA Fab [3], 0.0671. On the same counts, the results for HPQLCIPSWMCNVW [Phage-2594] are 1.05 and 0.105.

B6: Phage-2532 (peptide)
peptide: EHRWCIPVWMCEKS
modifications: cysteine pairing not given here; also: fused to phage pIII, linker and fusion site not given here
notes: as for B1
Turning to B6, in the test with PSMA Fab [1], the “Phage binding ELISA signal, Anti-PSMA Fab” value is 1.16.

B7: Phage-2529 (peptide)
peptide: IVKWCTPHWMCSGW
modifications: cysteine pairing not given here; also: fused to phage pIII, linker and fusion site not given here
notes: as for B1
Consider B7, for which the “Phage binding ELISA signal, Anti-PSMA Fab” value in the test with PSMA Fab [1] is 1.17. Turning to MVKWCTPPWMCNFE [Phage-2595], the “phage binding ELISA signal” value with PSMA Fab [2] came out at 1.05; in the test with PSMA Fab [3] it was 0.121.

As for MFKWCTPSWMCERV [Phage-2596], the entries for the “phage binding ELISA signal” value in the test with PSMA Fab [2] and with PSMA Fab [3] were 1.05 and 0.176, respectively.

B8: Phage-2539 (peptide)
peptide: LMNWCIPSWMCDVE
modifications: cysteine pairing not given here; also: fused to phage pIII, linker and fusion site not given here
notes: as for B1
As to B8, the “Phage binding ELISA signal, Anti-PSMA Fab” value with PSMA Fab [1] was 1.15.

B9: Phage-2527 (peptide)
peptide: LGHWCTPPWMCTES
modifications: cysteine pairing not given here; also: fused to phage pIII, linker and fusion site not given here
notes: as for B1
For the molecule B9, the “Phage binding ELISA signal, Anti-PSMA Fab” value with PSMA Fab [1] stood at 1.17.

B10: Phage-2541 (peptide)
peptide: PTKWCIPEWMCVES
modifications: cysteine pairing not given here; also: fused to phage pIII, linker and fusion site not given here
notes: as for B1
Turning to B10, in the test with PSMA Fab [1], the “Phage binding ELISA signal, Anti-PSMA Fab” value was found to be 1.15. On to TDKWCVPEWMCMEF [Phage-2591], for which the “phage binding ELISA signal” value is 1.05 in the test with PSMA Fab [2] and 0.0773 with PSMA Fab [3].

B11: Phage-2531 (peptide)
peptide: YEKWCIPRWMCEAN
modifications: cysteine pairing not given here; also: fused to phage pIII, linker and fusion site not given here
notes: as for B1
On to B11, for which the “Phage binding ELISA signal, Anti-PSMA Fab” value with PSMA Fab [1] was 1.16.

B12: Phage-2536 (peptide)
peptide: VSPKCIPPWMCSYV
modifications: cysteine pairing not given here; also: fused to phage pIII, linker and fusion site not given here
notes: as for B1
As to B12, in the test with PSMA Fab [1], the “Phage binding ELISA signal, Anti-PSMA Fab” value was determined as 1.16.

B13: Phage-2530 (peptide)
peptide: VTHWCIPEWMCVVE
modifications: cysteine pairing not given here; also: fused to phage pIII, linker and fusion site not given here
notes: as for B1
In the case of B13, the “Phage binding ELISA signal, Anti-PSMA Fab” value with PSMA Fab [1] was 1.17.

B14: Phage-2535 (peptide)
peptide: DWKWCTPAWMCSTE
modifications: cysteine pairing not given here; also: fused to phage pIII, linker and fusion site not given here
notes: as for B1
B14: the “Phage binding ELISA signal, Anti-PSMA Fab” value in the test with PSMA Fab [1] is 1.16.

Consider LSKWCIPDWMCISS [Phage-2599], for which the figures for the “phage binding ELISA signal” value with PSMA Fab [2] and with PSMA Fab [3] were 1.04 and 0.0618, respectively.

B15: Phage-2538 (peptide)
peptide: EPKWCVPPWMCAYD
modifications: cysteine pairing not given here; also: fused to phage pIII, linker and fusion site not given here
notes: as for B1
As to B15, the “Phage binding ELISA signal, Anti-PSMA Fab” value in the test with PSMA Fab [1] worked out at 1.16.

B16: Phage-2533 (peptide)
peptide: PVPLCRPPWMCQSV
modifications: cysteine pairing not given here; also: fused to phage pIII, linker and fusion site not given here
notes: as for B1
Regarding B16, the “Phage binding ELISA signal, Anti-PSMA Fab” value with PSMA Fab [1] amounted to 1.16. For MPRWCTPAWMCEAI [Phage-2590], the “phage binding ELISA signal” value is 1.05 with PSMA Fab [2] and 0.063 with PSMA Fab [3].

(Values after patent US20260242478A1 (published 2026).)
